From patent US20260001928A1 (CORTERIA PHARMACEUTICALS, priority 2022, published 2026) come the findings set out here.

The test concerns the target human corticotropin-releasing factor 2a (CRF2a receptor) (human), Q13324. Nature of the test: cell-based or functional assay.

*1 amine or outer side, *2 acyl side, *3 side chain or, on linkers, in order; H or OH if unused. Where no end group is shown, it is not given here. Side-chain parts run from the residue outwards. [ ]: non-standard residue; d: D form. The star is where a group is joined. C20 diacid = O=C(O)CCCCCCCCCCCCCCCCCCC(=O)*; C16 diacid = O=C(O)CCCCCCCCCCCCCCC(=O)*; γGlu = O=C(O)[C@H](CCC(=O)[*:2])N[*:1]; NMeI = CC[C@H](C)[C@H](NC)C(=O)O; Aib = CC(C)(N)C(=O)O

Sequence of human corticotropin-releasing factor 2a (CRF2a receptor) (human), Q13324 (Q13324 20-411): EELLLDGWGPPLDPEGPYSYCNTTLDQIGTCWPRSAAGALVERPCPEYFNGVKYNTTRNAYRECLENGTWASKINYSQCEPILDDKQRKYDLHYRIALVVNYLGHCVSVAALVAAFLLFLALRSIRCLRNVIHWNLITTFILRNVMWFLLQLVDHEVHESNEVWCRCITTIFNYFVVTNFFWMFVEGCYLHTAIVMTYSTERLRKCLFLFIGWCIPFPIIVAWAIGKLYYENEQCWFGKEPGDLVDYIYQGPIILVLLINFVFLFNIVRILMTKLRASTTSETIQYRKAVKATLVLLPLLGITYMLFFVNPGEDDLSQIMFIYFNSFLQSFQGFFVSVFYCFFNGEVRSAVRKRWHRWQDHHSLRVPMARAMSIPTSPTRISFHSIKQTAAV

B1: SEQ ID NO 244 (peptide)
peptide: Ac-IVLSLD[dV]PIKLK([γGlu-γGlu-C20 diacid])KILLEQEKQKAQREQAETN[Aib]QILAQV-NH2
SMILES: CC[C@H](C)[C@H](NC(C)=O)C(=O)N[C@H](C(=O)N[C@@H](CC(C)C)C(=O)N[C@@H](CO)C(=O)N[C@@H](CC(C)C)C(=O)N[C@@H](CC(=O)O)C(=O)N[C@@H](C(=O)N1CCC[C@H]1C(=O)N[C@H](C(=O)N[C@@H](CCCCN)C(=O)N[C@@H](CC(C)C)C(=O)N[C@@H](CCCCNC(=O)CC[C@H](NC(=O)CC[C@H](NC(=O)CCCCCCCCCCCCCCCCCCC(=O)O)C(=O)O)C(=O)O)C(=O)N[C@@H](CCCCN)C(=O)N[C@H](C(=O)N[C@@H](CC(C)C)C(=O)N[C@@H](CC(C)C)C(=O)N[C@@H](CCC(=O)O)C(=O)N[C@@H](CCC(N)=O)C(=O)N[C@@H](CCC(=O)O)C(=O)N[C@@H](CCCCN)C(=O)N[C@@H](CCC(N)=O)C(=O)N[C@@H](CCCCN)C(=O)N[C@@H](C)C(=O)N[C@@H](CCC(N)=O)C(=O)N[C@@H](CCCNC(=N)N)C(=O)N[C@@H](CCC(=O)O)C(=O)N[C@@H](CCC(N)=O)C(=O)N[C@@H](C)C(=O)N[C@@H](CCC(=O)O)C(=O)N[C@H](C(=O)N[C@@H](CC(N)=O)C(=O)NC(C)(C)C(=O)N[C@@H](CCC(N)=O)C(=O)N[C@H](C(=O)N[C@@H](CC(C)C)C(=O)N[C@@H](C)C(=O)N[C@@H](CCC(N)=O)C(=O)N[C@H](C(N)=O)C(C)C)[C@@H](C)CC)[C@@H](C)O)[C@@H](C)CC)[C@@H](C)CC)C(C)C)C(C)C
For the molecule B1, the EC50 [nM] (cAMP) worked out at 0.28 nM.

B2: SEQ ID NO 242 (peptide)
peptide: [NMeI]VLSLD[dV]PIKLK([γGlu-γGlu-C20 diacid])KILLEQEKQKEQREQAETN[Aib]QILAQV-NH2
modifications: N-terminus assumed
SMILES: CC[C@H](C)[C@H](NC)C(=O)N[C@H](C(=O)N[C@@H](CC(C)C)C(=O)N[C@@H](CO)C(=O)N[C@@H](CC(C)C)C(=O)N[C@@H](CC(=O)O)C(=O)N[C@@H](C(=O)N1CCC[C@H]1C(=O)N[C@H](C(=O)N[C@@H](CCCCN)C(=O)N[C@@H](CC(C)C)C(=O)N[C@@H](CCCCNC(=O)CC[C@H](NC(=O)CC[C@H](NC(=O)CCCCCCCCCCCCCCCCCCC(=O)O)C(=O)O)C(=O)O)C(=O)N[C@@H](CCCCN)C(=O)N[C@H](C(=O)N[C@@H](CC(C)C)C(=O)N[C@@H](CC(C)C)C(=O)N[C@@H](CCC(=O)O)C(=O)N[C@@H](CCC(N)=O)C(=O)N[C@@H](CCC(=O)O)C(=O)N[C@@H](CCCCN)C(=O)N[C@@H](CCC(N)=O)C(=O)N[C@@H](CCCCN)C(=O)N[C@@H](CCC(=O)O)C(=O)N[C@@H](CCC(N)=O)C(=O)N[C@@H](CCCNC(=N)N)C(=O)N[C@@H](CCC(=O)O)C(=O)N[C@@H](CCC(N)=O)C(=O)N[C@@H](C)C(=O)N[C@@H](CCC(=O)O)C(=O)N[C@H](C(=O)N[C@@H](CC(N)=O)C(=O)NC(C)(C)C(=O)N[C@@H](CCC(N)=O)C(=O)N[C@H](C(=O)N[C@@H](CC(C)C)C(=O)N[C@@H](C)C(=O)N[C@@H](CCC(N)=O)C(=O)N[C@H](C(N)=O)C(C)C)[C@@H](C)CC)[C@@H](C)O)[C@@H](C)CC)[C@@H](C)CC)C(C)C)C(C)C
B2 displayed an EC50 [nM] (cAMP) of 0.22 nM.

B3: SEQ ID NO 34 (peptide)
peptide: H-VLSLD[dV]PIKLK([γGlu-C16 diacid])KILLEQEKQKKQREQAETNKQILAQV-NH2
SMILES: CC[C@H](C)[C@H](NC(=O)[C@H](CCC(N)=O)NC(=O)[C@H](CCCCN)NC(=O)[C@H](CC(N)=O)NC(=O)[C@@H](NC(=O)[C@H](CCC(=O)O)NC(=O)[C@H](C)NC(=O)[C@H](CCC(N)=O)NC(=O)[C@H](CCC(=O)O)NC(=O)[C@H](CCCNC(=N)N)NC(=O)[C@H](CCC(N)=O)NC(=O)[C@H](CCCCN)NC(=O)[C@H](CCCCN)NC(=O)[C@H](CCC(N)=O)NC(=O)[C@H](CCCCN)NC(=O)[C@H](CCC(=O)O)NC(=O)[C@H](CCC(N)=O)NC(=O)[C@H](CCC(=O)O)NC(=O)[C@H](CC(C)C)NC(=O)[C@H](CC(C)C)NC(=O)[C@@H](NC(=O)[C@H](CCCCN)NC(=O)[C@H](CCCCNC(=O)CC[C@H](NC(=O)CCCCCCCCCCCCCCC(=O)O)C(=O)O)NC(=O)[C@H](CC(C)C)NC(=O)[C@H](CCCCN)NC(=O)[C@@H](NC(=O)[C@@H]1CCCN1C(=O)[C@H](NC(=O)[C@H](CC(=O)O)NC(=O)[C@H](CC(C)C)NC(=O)[C@H](CO)NC(=O)[C@H](CC(C)C)NC(=O)[C@@H](N)C(C)C)C(C)C)[C@@H](C)CC)[C@@H](C)CC)[C@@H](C)O)C(=O)N[C@@H](CC(C)C)C(=O)N[C@@H](C)C(=O)N[C@@H](CCC(N)=O)C(=O)N[C@H](C(N)=O)C(C)C
For the molecule B3, the EC50 [nM] (cAMP) is 1.61 nM.

B4: SEQ ID NO 243 (peptide)
peptide: Ac-IVLSLD[dV]PIKLK([γGlu-γGlu-C20 diacid])KILLEQEKQKKQREQAETN[Aib]QILAQV-NH2
SMILES: CC[C@H](C)[C@H](NC(C)=O)C(=O)N[C@H](C(=O)N[C@@H](CC(C)C)C(=O)N[C@@H](CO)C(=O)N[C@@H](CC(C)C)C(=O)N[C@@H](CC(=O)O)C(=O)N[C@@H](C(=O)N1CCC[C@H]1C(=O)N[C@H](C(=O)N[C@@H](CCCCN)C(=O)N[C@@H](CC(C)C)C(=O)N[C@@H](CCCCNC(=O)CC[C@H](NC(=O)CC[C@H](NC(=O)CCCCCCCCCCCCCCCCCCC(=O)O)C(=O)O)C(=O)O)C(=O)N[C@@H](CCCCN)C(=O)N[C@H](C(=O)N[C@@H](CC(C)C)C(=O)N[C@@H](CC(C)C)C(=O)N[C@@H](CCC(=O)O)C(=O)N[C@@H](CCC(N)=O)C(=O)N[C@@H](CCC(=O)O)C(=O)N[C@@H](CCCCN)C(=O)N[C@@H](CCC(N)=O)C(=O)N[C@@H](CCCCN)C(=O)N[C@@H](CCCCN)C(=O)N[C@@H](CCC(N)=O)C(=O)N[C@@H](CCCNC(=N)N)C(=O)N[C@@H](CCC(=O)O)C(=O)N[C@@H](CCC(N)=O)C(=O)N[C@@H](C)C(=O)N[C@@H](CCC(=O)O)C(=O)N[C@H](C(=O)N[C@@H](CC(N)=O)C(=O)NC(C)(C)C(=O)N[C@@H](CCC(N)=O)C(=O)N[C@H](C(=O)N[C@@H](CC(C)C)C(=O)N[C@@H](C)C(=O)N[C@@H](CCC(N)=O)C(=O)N[C@H](C(N)=O)C(C)C)[C@@H](C)CC)[C@@H](C)O)[C@@H](C)CC)[C@@H](C)CC)C(C)C)C(C)C
On to B4, for which the EC50 [nM] (cAMP) was 0.13 nM.
